{"source": "paper PMC10375191", "about": "“Transformable Neuropeptide Prodrug with Tumor Microenvironment Responsiveness for Tumor Growth and Metastasis Inhibition of Triple‐Negative Breast Cancer” (Advanced Science, 2023)", "key": {"[1]": {"molecular_target": "T1, matrix metalloproteinase‐2 (MMP‐2) (Homo sapiens, UniProt P08253)", "T1 construct": "purchased Novoprotein Scientific Inc. (Shanghai, China)", "T1 sequence (P08253 110-660)": "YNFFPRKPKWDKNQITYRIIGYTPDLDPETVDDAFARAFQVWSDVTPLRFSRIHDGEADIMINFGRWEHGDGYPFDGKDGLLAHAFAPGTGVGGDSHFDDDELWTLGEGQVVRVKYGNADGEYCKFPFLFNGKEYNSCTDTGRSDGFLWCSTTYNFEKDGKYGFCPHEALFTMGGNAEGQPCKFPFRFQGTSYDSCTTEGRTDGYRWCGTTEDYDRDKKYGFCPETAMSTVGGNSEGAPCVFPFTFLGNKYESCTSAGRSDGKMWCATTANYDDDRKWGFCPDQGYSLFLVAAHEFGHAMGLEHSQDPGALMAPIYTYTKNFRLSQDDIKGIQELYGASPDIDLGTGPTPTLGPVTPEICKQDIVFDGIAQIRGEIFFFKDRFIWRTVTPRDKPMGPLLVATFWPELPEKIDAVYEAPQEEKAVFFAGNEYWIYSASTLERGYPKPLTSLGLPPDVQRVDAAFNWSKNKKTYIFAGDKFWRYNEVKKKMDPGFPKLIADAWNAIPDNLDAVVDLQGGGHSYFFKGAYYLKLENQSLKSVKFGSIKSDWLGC", "assay": "MMPs-responsive cleavage of DOX-P18 by MMP-2 (HPLC, MS, fluorescence)", "format": "in vitro ADME", "details": "1 mg mL^−1 DOX-P18 with 1 µg mL^−1 MMP-2, 37 °C; HPLC at 6, 12, 24, 72 h, monitored at 500 nm; product DOX-P3 identified by MS", "protocol": "(§1) The enzymatic reaction process was monitored by HPLC at 6, 12, 24, and 72 h.\n(§2) Doxorubicin hydrochloride (DOX·HCl), trifluoroacetic acid (TFA), and anhydrous N,N-Dimethylformamide (DMF) were purchased from Aladdin (Shanghai, China).\n(§3) Thioanisole (TA), 1,2-ethanedithiol (EDT), and phenol were obtained from Macklin (Shanghai, China). 4-methylmorpholine (NMM), N,N’-diisopropylcarbodiimide (DIC), and 1-hydroxybenzotriazole (HOBt) were purchased from OKA (Beijing, China). Rink amide methylbenzhydrylamine (MBHA) resin, Wang resin and all Fmoc-protected amino acids were obtained from NJPeptide (Nanjing, China). Ethanol, diethyl ether, acetonitrile (ACN), and methanol were purchased from Sinopharm Chemical Reagent Co., Ltd (Shanghai, China). Piperidine, p-nitrophenol, and succinic anhydride (Succ) were obtained from Sigma-Aldrich (Shanghai, China). Recombinant human matrix metalloproteinase-2 (MMP-2) and matrix metalloproteinase-9 (MMP-9) produced by Novoprotein Scientific Inc. (Shanghai, China) are supplied as a 0.2 μm filtered buffer mixture of 20 mM Tris-HCl, 2 mM CaCl2, 150 mM NaCl, 0.05 % Brij 35 (w/v), pH 7.5, and their specific activity is >1300 pmol/min/µg as measured under the described conditions. All commercial reagents and HPLC solvents were used with […]"}, "[2]": {"molecular_target": "T2, matrix metalloproteinase‐9 (MMP‐9) (Homo sapiens, UniProt P14780)", "T2 construct": "purchased Novoprotein Scientific Inc. (Shanghai, China)", "T2 sequence (P14780 94-707)": "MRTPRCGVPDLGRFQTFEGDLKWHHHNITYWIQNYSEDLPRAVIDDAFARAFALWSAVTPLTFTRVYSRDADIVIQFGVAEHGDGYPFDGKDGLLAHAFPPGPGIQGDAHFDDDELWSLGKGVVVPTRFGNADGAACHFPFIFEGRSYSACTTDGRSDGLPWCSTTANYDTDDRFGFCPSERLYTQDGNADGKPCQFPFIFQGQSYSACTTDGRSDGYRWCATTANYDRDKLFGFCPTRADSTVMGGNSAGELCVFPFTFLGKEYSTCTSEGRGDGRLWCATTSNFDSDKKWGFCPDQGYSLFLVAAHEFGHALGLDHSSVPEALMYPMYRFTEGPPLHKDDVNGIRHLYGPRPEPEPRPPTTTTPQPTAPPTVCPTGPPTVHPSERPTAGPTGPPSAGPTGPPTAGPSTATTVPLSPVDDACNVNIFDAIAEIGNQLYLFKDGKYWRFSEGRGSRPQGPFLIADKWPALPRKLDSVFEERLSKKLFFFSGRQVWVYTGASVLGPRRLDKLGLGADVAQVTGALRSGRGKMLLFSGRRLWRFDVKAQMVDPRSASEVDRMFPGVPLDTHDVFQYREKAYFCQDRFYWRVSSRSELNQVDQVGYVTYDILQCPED", "assay": "MMPs-responsive cleavage of DOX-P18 by MMP-9 (HPLC, MS, fluorescence)", "format": "in vitro ADME", "protocol": "as §1, §2, §3"}, "[3]": {"test_system": "MDA‐MB‐231 cells", "assay": "CCK-8 cell viability assay, MDA-MB-231", "format": "cell-based, human", "details": "MDA-MB-231, 36 and 48 h versus 24 h", "protocol": "MDA‐MB‐231 cells were incubated in 96‐well plates for 24 h (1 × 10^4 cells per well). […] At the appointed time, 10 µL CCK‐8 solution was dropped into each well and further co‐incubated with treated cells for 2 h. The absorbance values at 450 nm were measured by an automated plate reader (iMark (168‐1130), Biorad, USA). The IC50 values were obtained from Microsoft Excel's FORECAST formula."}, "[4]": {"test_system": "MDA‐MB‐231 cells", "assay": "Wound healing experiment", "format": "cell-based, human", "protocol": "Wound healing culture inserts were tightly stuck on 12‐well plates and 2 × 10^4 MDA‐MB‐231 cells were seeded in the gap of the culture inserts to incubate for 24 h. […] After incubation for 12 and 24 h, the wound healing area was photographed by a microscope (DFC 450C, Leica, Germany)."}, "[5]": {"test_system": "healthy ICR mice", "assay": "Maximum tolerated dose / acute toxicity study", "text": "Animal survival of each group (n = 10, 5 female and 5 male) was continuously recorded for 14 days. Eventually, the evaluation and calculation of the median lethal dose (LD50) were completed with these collected data using the Bliss rule."}, "[6]": {"test_system": "MDA‐MB‐231 metastasis model", "assay": "Anti-metastasis evaluation, MDA-MB-231 metastasis model", "format": "in vivo, mouse", "details": "MDA-MB-231-luc i.v. model", "text": "All the animal experimental procedures were recognized and approved by the Regional Ethics Committee for Animal Experiments at Ningbo University, China (Permit NO. SYXK (Zhe) 2019‐0005). The triple‐negative breast cancer (TNBC) xenograft tumors were established on female BALB/c nude mice (≈15 g) by subcutaneous injection of MDA‐MB‐231 cells (5 × 10^6 cells in each mouse). TNBC metastasis models were constructed by injecting MDA‐MB‐231‐luc cells (1 × 10^5 cells in each mouse) through the tail vein to female BALB/c nude mice. The day that MDA‐MB‐231‐luc was injected was set as D0. In vivo imaging system (IVIS) (Lumina XRMS Ш, PerkinElmer, USA) was utilized to identify the tumor metastasis at D12.\nFor the TNBC metastasis model, two kinds of treatments were developed. […] After seven times of injections, continued observation of the mice was carried out. […] In vivo imaging system (IVIS Lumina XRMS Ш, PerkinElmer, USA) was utilized again to estimate the tumor metastasis at D26. Meanwhile, the mice were sacrificed and the main organs (heart, livers, spleen, lung, and kidney) were separated for histological analysis."}}, "note": "Starred links: 1 amine or outer side, 2 acyl side, 3 side chain; linkers in the order of their positions; H or OH if unused. Residues, ends and D or L forms follow the SMILES beside them. *: point of attachment. Doxorubicin(3'-N) = COc1cccc2c1C(=O)c1c(O)c3c(c(O)c1C2=O)C[C@@](O)(C(=O)CO)C[C@@H]3O[C@H]1C[C@H](N*)[C@H](O)[C@H](C)O1; Suc = O=C(CCC(=O)[*:2])[*:1]", "data": [{"smiles": "CC[C@H](C)[C@H](NC(=O)[C@@H]1CCCN1C(=O)[C@H](CC(N)=O)NC(=O)[C@H](CC(N)=O)NC(=O)[C@H](Cc1ccc(O)cc1)NC(=O)[C@H](Cc1c[nH]cn1)NC(=O)[C@H](CCCNC(=N)N)NC(=O)CNC(=O)[C@H](CCCNC(=N)N)NC(=O)[C@@H](NC(=O)CNC(=O)[C@H](CC(C)C)NC(=O)[C@@H]1CCCN1C(=O)CCC(=O)N[C@H]1C[C@H](O[C@H]2C[C@](O)(C(=O)CO)Cc3c(O)c4c(c(O)c32)C(=O)c2c(OC)cccc2C4=O)O[C@@H](C)[C@H]1O)C(C)C)C(=O)N[C@@H](Cc1c[nH]c2ccccc12)C(=O)N[C@@H](CCCNC(=N)N)C(=O)N[C@@H](CCC(N)=O)C(=O)N[C@@H](CCCNC(=N)N)C(=O)N[C@@H](Cc1ccc(O)cc1)C(N)=O", "note": "[DOX‐P18] ({Doxorubicin(3'-N)-Suc}-PLGVRGRHYNNPIWRQRY-NH2)", "values": [{"measurement": "Enzymatic cleavage by MMP-2", "setting": "[1]", "value": "efficiently cleaved"}, {"measurement": "Cleavage efficiency of MMP-9 relative to MMP-2", "setting": "[2]; 0.1 µg mL^−1 MMP-2 or MMP-9, 20 µg mL^−1 DOX-P18, 12 and 24 h, fluorescence intensity at 592 nm (Ex 488 nm)", "value": "about 10 times"}, {"measurement": "Enzymatic cleavage by MMP-9", "setting": "[2]; 1 mg mL^−1 DOX-P18 with 1 µg mL^−1 MMP-9, 37 °C, HPLC at 6, 12, 24, 72 h, monitored at 500 nm, product DOX-P3 identified by MS", "value": "efficiently cleaved"}, {"measurement": "IC50 with extended incubation time", "setting": "[3]", "value": "further reduced"}, {"measurement": "Wound healing rate", "setting": "[4]; MDA-MB-231, 5 µg mL^−1, 12 h, PBS group 50.8%", "value": 40.3, "unit": "%"}, {"measurement": "Wound healing rate (coverage rate)", "setting": "[4]; MDA-MB-231, 5 µg mL^−1, 24 h, PBS group defined as 100%", "value": 71.5, "unit": "%"}, {"measurement": "Histological analysis of major organs", "setting": "[5]; 14 days after single dose, 40 mg kg^−1 DOX (or DOX equivalent)", "value": "no significant differences in major organs"}, {"measurement": "Blood routine indexes", "setting": "[5]; 14 days after single injection, n = 3, DOX: WBC, PLT, PCT at 10 mg kg^−1, DOX-P18: all indexes, different doses", "value": "not significantly different"}, {"measurement": "Improvement of biosafety (LD50 versus DOX)", "setting": "[5]; LD50 in DOX equivalents versus free DOX", "value": 67.8, "unit": "%"}, {"measurement": "Single-dose median lethal dose (LD50)", "setting": "[5]; single intravenous dose, 14 days, n = 10 per group, Bliss rule", "value": 221.5, "unit": "mg/kg"}, {"measurement": "Lung metastasis, prevention schedule (histology D26)", "setting": "[6]; 25 mg kg^−1 DOX-P18 (5 mg kg^−1 DOX) seven times every 2 days from D0", "value": "limited number"}, {"measurement": "Lung and bone metastasis, treatment schedule (histology D26)", "setting": "[6]; 25 mg kg^−1 DOX-P18 (5 mg kg^−1 DOX) seven times every 2 days from D14", "value": "significant metastasis inhibition"}]}]}
